Biological target: monoclonal antibody NBH133A1-2B4
Assay: competitive ELISA: standard peptide competes with coated …-K-Biotin for HRP-labelled antibody

IC50: 0.0117 µg/mL
Binder: NLLNLNKDKE [standard peptide …]

From EP4259652B1
